Experimental data published in patent US12303551B2, “Cellular immunotherapy compositions and uses thereof” (CERO THERPEUTICS HOLDINGS, INC., priority 2018, dated 2025).

B1: CER27: Chimeric engulfment receptor: Tim4 binding, Tim4 transmembrane, TLR2 signaling; SEQ ID NO: 98 (protein)
chain: MSKGLLLLWLVTELWWLYLTPAASEDTIIGFLGQPVTLPCHYLSWSQSRNSMCWGKGSCPNSKCNAELLRTDGTRIISRKSTKYTLLGKVQFGEVSLTISNTNRGDSGVYCCRIEVPGWFNDVKKNVRLELRRATTTKKPTTTTRPTTTPYVTTTTPELLPTTVMTTSVLPTTTPPQTLATTAFSTAVTTCPSTTPGSFSQETTKGSAFTTESETLPASNHSQRSMMTISTDIAVLRPTGSNPGILPSTSQLTTQKTTLTTSESLQKTTKSHQINSRQTILIIACCVGFVLMVLLFLAFLHRFHGLWYMKMMWAWLQAKRKPRKAPSRNICYDAFVSYSERDAYWVENLMVQELENFNPPFKLCLHKRDFIPGKWIIDNIIDSIEKSHKTVFVLSENFVKSEWCKYELDFSHFRLFDENNDAAILILLEPIEKKAIPQRFCKLRKIMNTKTYLEWPMDEAQREGFWVNLRAAIKS
modifications: CER27, amino acids 1-22 are signal peptide
B2: CER29: Chimeric engulfment receptor: Tim4 binding, Tim4 transmembrane, TRAF6 signaling; SEQ ID NO: 99 (protein)
chain: MSKGLLLLWLVTELWWLYLTPAASEDTIIGFLGQPVTLPCHYLSWSQSRNSMCWGKGSCPNSKCNAELLRTDGTRIISRKSTKYTLLGKVQFGEVSLTISNTNRGDSGVYCCRIEVPGWFNDVKKNVRLELRRATTTKKPTTTTRPTTTPYVTTTTPELLPTTVMTTSVLPTTTPPQTLATTAFSTAVTTCPSTTPGSFSQETTKGSAFTTESETLPASNHSQRSMMTISTDIAVLRPTGSNPGILPSTSQLTTQKTTLTTSESLQKTTKSHQINSRQTILIIACCVGFVLMVLLFLAFLMSLLNCENSCGSSQSESDCCVAMASSCSAVTKDDSVGGTASTGNLSSSFMEEIQGYDVEFDPPLESKYECPICLMALREAVQTPCGHRFCKACIIKSIRDAGHKCPVDNEILLENQLFPDNFAKREILSLMVKCPNEGCLHKMELRHLEDHQAHCEFALMDCPQCQRPFQKFHINIHILKDCPRRQVSCDNCAASMAFEDKEIHDQNCPLANVICEYCNTILIREQMPNHYDLDCPTAPIPCTFSTFGCHEKMQRNHLARHLQENTQSHMRMLA
modifications: CER29, amino acids 1-22 are signal peptide
B3: CER30: Chimeric engulfment receptor: Tim4 binding, Tim4 transmembrane, TRAF2 signaling; SEQ ID NO: 120 (protein)
chain: MSKGLLLLWLVTELWWLYLTPAASEDTIIGFLGQPVTLPCHYLSWSQSRNSMCWGKGSCPNSKCNAELLRTDGTRIISRKSTKYTLLGKVQFGEVSLTISNTNRGDSGVYCCRIEVPGWFNDVKKNVRLELRRATTTKKPTTTTRPTTTPYVTTTTPELLPTTVMTTSVLPTTTPPQTLATTAFSTAVTTCPSTTPGSFSQETTKGSAFTTESETLPASNHSQRSMMTISTDIAVLRPTGSNPGILPSTSQLTTQKTTLTTSESLQKTTKSHQINSRQTILIIACCVGFVLMVLLFLAFLMAAASVTPPGSLELLQPGFSKTLLGTKLEAKYLCSACRNVLRRPFQAQCGHRYCSFCLASILSSGPQNCAACVHEGIYEEGISILESSSAFPDNAARREVESLPAVCPSDGCTWKGTLKEYESCHEGRCPLMLTECPACKGLVRLGEKERHLEHECPERSLSCRHCRAPCCGADVKAHHEVCPKFPLTCDGCGKKKIPREKFQDHVKTCGKCRVPCRFHAIGCLETVEGEKQQEHEVQWLREHLAMLLSSVLEAKPLLGDQSHAGSELLQRCESLEKKTATFENIVCVLNREVERVAMTAEAC
modifications: CER30, amino acids 1-22 are signal peptide
B4: CER110: Chimeric engulfment receptor: Tim4 binding, Tim4 transmembrane, TRAF6 and DAP12 signaling; SEQ ID NO: 145 (protein)
chain: MSKGLLLLWLVTELWWLYLTPAASEDTIIGFLGQPVTLPCHYLSWSQSRNSMCWGKGSCPNSKCNAELLRTDGTRIISRKSTKYTLLGKVQFGEVSLTISNTNRGDSGVYCCRIEVPGWFNDVKKNVRLELRRATTTKKPTTTTRPTTTPYVTTTTPELLPTTVMTTSVLPTTTPPQTLATTAFSTAVTTCPSTTPGSFSQETTKGSAFTTESETLPASNHSQRSMMTISTDIAVLRPTGSNPGILPSTSQLTTQKTTLTTSESLQKTTKSHQINSRQTILIIACCVGFVLMVLLFLAFLMSLLNCENSCGSSQSESDCCVAMASSCSAVTKDDSVGGTASTGNLSSSFMEEIQGYDVEFDPPLESKYECPICLMALREAVQTPCGHRFCKACIIKSIRDAGHKCPVDNEILLENQLFPDNFAKREILSLMVKCPNEGCLHKMELRHLEDHQAHCEFALMDCPQCQRPFQKFHINIHILKDCPRRQVSCDNCAASMAFEDKEIHDQNCPLANVICEYCNTILIREQMPNHYDLDCPTAPIPCTFSTFGCHEKMQRNHLARHLQENTQSHMRMLAYFLGRLVPRGRGAAEAATRKQRITETESPYQELQGQRSDVYSDLNTQRPYYK
modifications: CER110, amino acids 1-22 are signal peptide

Key:
[1] = system: SCC152 cells; experiment: Elimination of GFP-expressing SCC152 target cells over time (quantification and time lapse imaging); format: cell-based
Protocol: Target SCC152 cells were co-cultured with CD8+ T cells transduced with HPV E7 TCR+CD4+ T cells transduced with a selected CER, or controls (CD8+ T cell transduced with HPV E7 TCR+CD4+ transduced control) at a 1:1:1 ratio. The number of target cells were quantified using imaging software. 0 hours, 24 hours, and 48 hours are shown from left to right.
(§1) FIG. 21 is time lapse imaging from 96-well co-culture experiments comprising CD8+ T cells transduced with HPV16 E7 TCR+CD4+ T cells transduced with CER5, CER17 or CER19 incubated with SCC152 target cells at a 1:1:1 ratio. SCC152 HPV+ target cells were quantified using automated cell counting software.
as §1, with “22” for “21”, “CER21, CER23” for “CER5, CER17”, “CER26” for “CER19”
as §1, with “23” for “21”, “CER103b, CER104” for “CER5, CER17”, “CER105” for “CER19”
as §1, with “24” for “21”, “CER106, CER116” for “CER5, CER17”, “CER27” for “CER19”
FIG. 57 is a bar graph showing quantification of loss of SCC152 HPV16+ target cells over time during co-culture assays. SCC152 cells were transduced with green fluorescent protein (GFP) and co-cultured with CD8+ T cells transduced with HPV16 E7 TCR and CD4+ T cells transduced with a selected CER (CER29, CER30, CER110, CER112, CER113, CER114, CER116, or CER117) or a CD4+ T cell control at a 1:1:1 ratio (CD8:CD4:target cell). The number of target cells was quantified at various time points during co-culture (0 hrs, 12 hrs, 24 hrs, and 36 hrs) using fluorescence microscopy and imaging software.
(§2) FIG. 58 are fluorescence micrograph images of the co-culture assay described in FIG. 57, showing clearance of the SCC152 cells (pink) as co-culture with CD8+ T cells transduced with HPV16 E7 TCR and CD4+ T cells transduced with a selected CER (columns from left to right: control, CER29, CER30, CER110, or CER112) progresses (rows from top to bottom: 0 hrs, 12 hrs, 24 hrs, and 36 hrs).
as §2, with “59” for “58”, “CER113, CER114, CER116,” for “CER29, CER30, CER110,”, “CER117)” for “CER112)”
(§3) Elimination of target SCC152 cells was also detected by quantifying green fluorescent protein expression by SCC152 cells over time (0 hr, 24 hr, 48 hr) during co-incubation with CD8+ T cells transduced with HPV16 E7 specific TCR+ CD4 T cells transduced with selected CER (see, FIG. 20).
as §3, with “hr, 12 hr,” for “hr,”, “hr, 36” for “hr, 48”, “TCR+ CD4+” for “TCR+ CD4”, “CER (CER29, CER30, CER110, CER112, CER113, CER114, CER116, or CER117)” for “CER”, “FIG. 57).” for “FIG. 20).”

[2] = system: SCC152 target cells; experiment: Phagocytosis of SCC152 by CD4+ T cell/CER, fluorescence microscopy with hybrid capture; format: cell-based; conditions: TRAF-domain CERs, 4 hours, 1:1:0.5 (CD8:CD4:target cell); versus CD4+ control + CD8+/E7 TCR
Protocol: (§4) FIG. 28 is a bar graph representing quantification of CD4+ T cell-CER mediated phagocytosis of SCC152 target cells. Results calculated as ((number of phagocytic target events)/(total number of effectors))*100 from 3×3 40× images, 4 hours after initiation of co-culture assay. CD8+ T cells transduced with HPV16 E7 TCR and CD4+ T cells transduced with selected CERs (CER5, CER17, CER19, CER21, CER23, CER26, CER27, CER103b, CER104, CER105, CER106, or CER116) were co-cultured with SCC152 squamous head and neck carcinoma target cells at a 1:1:0.5 ratio for 4 hours and imaged.
as §4, with “29” for “28”, “(median area ratio” for “((number”, “of” for “of phagocytic”, “events in effector cells*% phagocytosis)” for “events)/(total number of effectors))*100”
(§5) FIG. 55 is a bar graph representing quantification of CD4+ T cell-CER mediated phagocytosis of SCC152 target cells. Percent phagocytosis was calculated as ((number of phagocytic target events)/(total number of effector cells))*100. These numbers were calculated from 3×3 images captured by Keyence BZ-X710 fluorescence microscope at 40× resolution, 4 hours after initiation of co-culture assay. CD8+ T cells transduced with HPV16 E7 TCR and CD4+ T cells transduced with a selected CER (CER29, CER30, CER110, CER112, CER113, CER114, CER116, or CER117) were co-cultured with SCC152 target cells at a 1:1:0.5 ratio (CD8:CD4:target cell) for 4 hours and imaged.
as §5, with “56” for “55”, “Adjusted phagocytic index” for “Percent phagocytosis”, “(median area ratio” for “((number”, “of” for “of phagocytic”, “events in” for “events)/(total number of”, “cells*% phagocytosis).” for “cells))*100.”
Phagocytic activity of CD4+ T cell/CER+CD8+ T cell/HPV16 E7 TCR combinations co-cultured with SCC152 cells was visualized and quantified using KEYENCE BZ-X710 fluorescence microscope, […] and hybrid capture software.

Row | Molecule | number of SCC152 cells in time lapse imaging ([1]; 96-well co-culture, CD8+/E7 TCR + CD4+/CER + SCC152 1:1:1, compared to control) | engulfment of SCC152 target cells (percent phagocytosis, adjusted phagocytic index) [2] | elimination of SCC152 cells, time lapse imaging ([1]; 0 to 36 hrs, compared to the control) | elimination of SCC152 cells (GFP quantification) ([1]; by 36 hrs, 1:1:1 ratio (CD8:CD4:target cell), compared to control)
1 | B1 | decreasing in numbers over time |  |  | 
2 | B2 |  | enhanced engulfment |  | 
3 | B3 |  | enhanced engulfment | enhanced elimination of SCC152 cells | nearly complete elimination
4 | B4 |  | enhanced engulfment |  | 
